Where two headings read alike, the source gives them in different places.
How the values were obtained:
Number&Brightness = target: the molecule itself; assay: Number&Brightness
[1] = target: the molecule itself

B1: E. coli glutamine synthetase fused to mEGFP (GlnA-mEGFP) (enzyme)
chain: MSAEHVLTMLNEHEVKFVDLRFTDTKGKEQHVTIPAHQVNAEFFEEGKMFDGSSIGGWKGINESDMVLMPDASTAVIDPFFADSTLIIRCDILEPGTLQGYDRDPRSIAKRAEDYLRSTGIADTVLFGPEPEFFLFDDIRFGSSISGSHVAIDDIEGAWNSSTQYEGGNKGHRPAVKGGYFPVPPVDSAQDIRSEMCLVMEQMGLVVEAHHHEVATAGQNEVATRFNTMTKKADEIQIYKYVVHNVAHRFGKTATFMPKPMFGDNGSGMHCHMSLSKNGVNLFAGDKYAGLSEQALYYIGGVIKHAKAINALANPTTNSYKRLVPGYEAPVMLAYSARNRSASIRIPVVSSPKARRIEVRFPDPAANPYLCFAALLMAGLDGIKNKIHPGEAMDKNLYDLPPEEAKEIPQVAGSLEEALNELDLDREFLKAGGVFTDEAIDAYIALRREEDDRVRMTPHPVEFELYYSV
Number&Brightness
  stoichiometry N: 11.9

B2: Influenza A virus hemagglutinin fused to mEGFP (HA-wt-mEGFP) (natural protein)
chain: not shown
[1]
  stoichiometry N: 3.17
